In patent US20240294590A1:

Experiments:
[1] = molecular target: Histidine tagged PSMGFR peptide (MUC1* extra cellular domain peptide); experiment: SPR, Biacore 3000, His-tagged PSMGFR peptide on NTA-Ni SAM chip
[2] = molecular target: Histidine tagged PSMGFR peptide (MUC1* extra cellular domain peptide); experiment: SPR, Biacore 3000, His-tagged PSMGFR peptide on NTA-Ni SAM chip; hexamer signal divided by 3

Chain of Histidine tagged PSMGFR peptide (MUC1* extra cellular domain peptide) (peptide, as listed by the source): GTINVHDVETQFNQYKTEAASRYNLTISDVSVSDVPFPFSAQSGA

amount of binding (RUs) [1]: 100 RU | fold less bound than NM23-S120G-dimer [2]: 12 fold
Substance: NM23-S120G-hexamer (non-refolded soluble-fraction preparation of NM23-H1 S120G) (from UniProt P15531 1-152) (ligand)
